Measurements reported in article doi:10.1101/2020.11.13.382242.
Several values for one entry are separate records, joined by “and”; a condition that tells them apart may be missing. Equal entries are not always repeated.

What was measured:
Test in all cases: fluorescence fluctuation spectroscopy
[1] = biological target: Full-length GFP-CPSF6 (isoform 2; cell-free expressed, N-terminal GFP tag)
[2] = biological target: HIV-1 capsid particles self-assembled from CA [change] (disulfide cross-linked cones and tubes) (HIV-1)
[3] = biological target: AF568-labelled HIV-1 capsid particles co-assembled from CA [change] and CA [change]-AF568 (HIV-1)

Sequence of Full-length GFP-CPSF6 (isoform 2; cell-free expressed, N-terminal GFP tag) (Q16630 whole entry, canonical isoform): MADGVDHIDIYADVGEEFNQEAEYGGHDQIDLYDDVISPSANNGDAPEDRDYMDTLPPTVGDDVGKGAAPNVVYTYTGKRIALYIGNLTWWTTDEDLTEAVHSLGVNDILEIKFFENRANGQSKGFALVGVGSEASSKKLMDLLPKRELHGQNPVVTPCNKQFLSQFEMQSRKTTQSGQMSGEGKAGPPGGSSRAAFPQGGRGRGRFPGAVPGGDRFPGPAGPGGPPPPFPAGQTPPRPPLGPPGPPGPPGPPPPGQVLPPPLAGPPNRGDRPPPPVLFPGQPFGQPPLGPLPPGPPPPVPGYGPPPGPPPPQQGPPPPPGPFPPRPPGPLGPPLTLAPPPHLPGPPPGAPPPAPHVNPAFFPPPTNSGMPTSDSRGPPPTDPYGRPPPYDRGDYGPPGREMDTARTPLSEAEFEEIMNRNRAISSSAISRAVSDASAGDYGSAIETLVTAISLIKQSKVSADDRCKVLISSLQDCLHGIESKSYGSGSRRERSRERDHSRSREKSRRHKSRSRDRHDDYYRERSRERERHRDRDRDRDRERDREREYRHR

Substance	fold increase in the brightness parameter compared to monomeric GFP [1]	fold increase in the brightness parameter in the presence of capsid [2]	Kd [3]	analyte:CA intensity ratio relative to CPSF6-AF488 [3]
Full-length GFP-CPSF6 (isoform 2; cell-free expressed, N-terminal GFP tag) (natural protein)	4 fold and 8 fold	10 fold		
Untagged recombinant CypA labelled with Alexa Fluor 488-C5 maleimide (from UniProt P62937 1-165) (natural protein)			16.5 µM	5 fold
